Data: US20090169520A1, “Compounds, Pharmaceutical Compositions and Therapeutic Methods of Preventing and Treating Diseases and Disorders Associated With Amyloid Fibril Formation” (YISSUM RESEARCH DEVELOPMENT COMPANY OF THE HEBREW …, priority 2005, published 2009)
Marks after values point to notes of the source that are not given here.

T1: Amylin (Homo sapiens, UniProt P10997)
T1 sequence (P10997 34-70 limits assumed): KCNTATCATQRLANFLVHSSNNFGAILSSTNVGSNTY


Key:
[1] = single C-terminal substitution (A539T); Bartels et al., 1992; cited from earlier work
Aβ (1-40) peptide = molecular target: T2, Aβ (1-40) peptide (Homo sapiens, UniProt P05067); assay: In vitro formation of amyloid fibril from Aβ (1-40), Thioflavin T fluorescence; assay type: biochemical; conditions: for Lag (fold change) / Rate (fold change): relative to No addition, asterisk = statistically significant; for effect on Aβ fibril formation (in words): 33 μM Aβ
T2 construct: synthetic Aβ (1-40) peptide; purchased Biosource, Camarillo, Calif., USA; host or cells: chemical synthesis
Source text: In vitro formation of amyloidfibril—In vitro formation of amyloid fibril was in the presence of the synthetic Aβ (1-40) peptide (Biosource, Camarillo, Calif., USA) as a precursor. The reporter molecule was Thioflavin T (ThT) (Sigma, Cat. No. T-3516, Jerusalem, Israel), a benzothiazole dye that undergoes a shift in its excitation spectrum (from 340 nm to 450 nm) when interacting with β-sheet amyloid structures. The resultant ThT fluorescence signal is proportional to the amount of amyloid formed (LeVine, 1993). A stock solution of Aβ in dimethylsulfoxide (DMSO) was diluted with phosphate-buffered saline (PBS) containing 0.02% Na-Azid to a final concentration of 162 μM and 20 μl of the diluted Aβ solution was placed in each well of a 96 multiwell plate (Nunc, Roskilde, Denmark). After 20 minutes of pre-incubation at room temperature of the Aβ samples (20 μl), 80 μl of 1.25 μM ThT in 50 mM glycine buffer, pH 8.5, was added. Incubation was with shaking at 200 rpm for 6 to 8 hours at the noted temperatures. Fluorescence was measured continuously or at 30-40 minute intervals, using a Spectro-fluorometer (Tecan, Maennedorf, Switzerland). Excitation and emission wavelengths were 450 nm and 485 nm, respectively. Enhancement of the fibrillation process by the different combinations of water-dissolved cholinesterases and peptides mimicking fragments thereof, was evaluated by dissecting the time curves into two stages: the lag before the onset of the fluorescence increase (the nucleation process) and the average rate of fluorescence increase at several time points (rate of fibrils formation). Statistics analysis was performed using the Kaleidagraph Software (Reading, Pa., USA).
BChE attenuates amyloid fibrils formation—Amyloid fibril (Aβ) formation was quantified by measuring changes in ThT fluorescence. As predicted, Aβ fibrils were spontaneously formed in vitro provided that the Aβ peptide was present above 5 μM. […] Reactions were performed in the absence or presence of increasing concentrations of purified human BChE (SEQ ID NO:2; FIG. 1a), recombinant ACHE-S (SEQ ID NO:6; FIG. 1b) or both (FIGS. 1c and d). […] Due to the complex kinetics of the fibril formation process the apparent rate of change in ThT fluorescence was repeatedly determined during the exponential phase of increase in its signal (at 390±20 minutes). […] In contrast, addition of similar doses of AChE to Aβ, predictably shortened by half the lag time prior to fibril formation, again in a dose dependent manner (FIG. 1e). The lag period therefore decreased from 240 minutes to 150 minutes and the maximal rate of fibril formation increased from 0.057 to 0.116 fluorescence units (FU)/min for Aβ alone as compared to Aβ in the presence of 0.36 μM AChE-S (FIG. 1b and Table 7, hereinbelow). When increasing doses of hBChE were added to a combined mix of 33 μM Aβ with 0.36 μM AChE-S, a dose-dependent interference with the fibril formation process was observed (FIG. 1c and 2a). Thus, BChE is capable of reducing the rate of fibrillation of Aβ alone, or Aβ which is formed in the presence of AChE.

[2] = Rate of hydrolysis of AThCh/BThCh by cholinesterases; assay type: biochemical; conditions: for Rate of hydrolysis of AThCh/BThCh: average of three experiments
Method: BChE biochemistry—Serum cholinesterase catalytic activity measurements are based on a spectrophotometric method adapted to a microtiter plate assay. Butyrylthiocholine (BTCh, Sigma) hydrolysis rates are measured following 20 minutes incubation with 5×10^−5 M tetraisopropyl pyrophosphoramide (iso-OMPA, Sigma), a specific BChE inhibitor or 10^−5 M 1,5-bis(4-allyldimethylammoniumphenyl) pentan-[…] dibromide (BW284c51, Sigma, A9013), a specific AChE inhibitor. Addition of both inhibitors reduces hydrolysis to the rate of spontaneous hydrolysis measured in control reactions lacking enzyme or substrate, attesting to the specificity of these serum activities. Readings at 405 nm are repeated at 2-minute intervals for 20 minutes. Non-enzymatic hydrolysis of substrate is subtracted from the total rate of hydrolysis. Enzyme activity is calculated using the molar extinction coefficient for 5-thio-2-nitrobenzoate [13,600 M^−1×cm^−1] [Ellman, G. L. et al. (1961) Biochem. Pharmacol. 7:88-95].
In addition, BChE is soluble and thus accessible to circulating ACh. Moreover, the substrate of preference of BChE is different than that of ACHE. Thus, over the range of substrate concentrations 0.1 to 25 mM, the ratio of hydrolysis of AThCh relative to BThCh differs between the enzymes (Table 8, hereinbelow).

Amylin = molecular target: T1, Amylin; assay: Amylin amyloid fibril formation, Thioflavin T fluorescence; assay type: biochemical; conditions: 20 μM amylin
Method: FIG. 6 is a graph illustrating the effect of BChE in preventing amylin amyloid fibril formation. Amylin at a concentration of 20 μM was incubated with Thiofalvin T (at a concentration of 1 μM) and the formation of amyloid fibril was measured by following the Thiofalvin T fluorescence intensity [excitation (450 nm); emission (485 nm)] in the presence or absence of 0.24 μM BChE (purified from pooled human plasma). Note that the addition of BChE increases the lag time for amylin fibrillation from 30 minutes to 110 minutes.
To test the ability of BChE to prevent amylin amyloid fibril formation, the present inventors have tested the rate of amylin fibrillation (at a concentration of 20 μM) in the presence or absence of 0.24 μM BChE (purified from pooled human serum). As is shown in FIG. 6, BChE completely attenuated the formation of amylin fibrils for 100 minutes, and increased the lag time of amyloid fibril formation from 30 minutes to 110 minutes.

T2 sequence (P05067 672-711 limits assumed): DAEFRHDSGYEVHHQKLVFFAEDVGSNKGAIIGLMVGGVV

Molecule	Lag (fold change) (Aβ (1-40) peptide)	Rate (fold change) (Aβ (1-40) peptide)	effect on Aβ fibril formation (in words) (Aβ (1-40) peptide; ThT fluorescence)	Rate of hydrolysis of AThCh/BThCh ([2]; Substrate 0.1 mM)	Rate of hydrolysis of AThCh/BThCh ([2]; Substrate 25.0 mM)	further results
BChE K variant: BChE variant with a single C-terminal substitution (A539T) (protein, UniProt P06276 29-602, looked up, variant A539T) Cholinesterase: EDDIIIATKNGKVRGMNLTVFGGTVTAFLGIPYAQPPLGRLRFKKPQSLTKWSDIWNATKYANSCCQNIDQSFPGFHGSEMWNPNTDLSEDCLYLNVWIPAPKPKNATVLIWIYGGGFQTGTSSLHVYDGKFLARVERVIVVSMNYRVGALGFLALPGNPEAPGNMGLFDQQLALQWVQKNIAAFGGNPKSVTLFGESAGAASVSLHLLSPGSHSLFTRAILQSGSFNAPWAVTSLYEARNRTLNLAKLTGCSRENETEIIKCLRNKDPQEILLNEAFVVPYGTPLSVNFGPTVDGDFLTDMPDILLELGQFKKTQILVGVNKDEGTAFLVYGAPGFSKDNNSIITRKEFQEGLKIFFPGVSEFGKESILFHYTDWVDDQRPENYREALGDVVGDYNFICPALEFTKKFSEWGNNAFFYYFEHRSSKLPWPEWMGVMHGYEIEFVFGLPLERRDNYTKAEEILSRSIVKRWANFAKYGNPNETQNNSTSWPVFKSTEQKYLTLNTESTRIMTKLRAQQCRFWTSFFPKVLEMTGNIDETEWEWKAGFHRWNNYMMDWKNQFNDYTSKKESCVGL						reduction in hydrolytic activity [1]: 30%
AChE-S: recombinant human ACHE-S, prepared from an ACHE cDNA clone (Sigma) (protein, listed as Homo sapiens) MRPPQCLLHTPSLASPLLLLLLWLLGGGVGAEGREDAELLVTVRGGRLRGIRLKTPGGPVSAFLGIPFAEPPMGPRRFLPPEPKQPWSGVVDATTFQSVCYQYVDTLYPGFEGTEMWNPNRELSEDCLYLNVWTPYPRPTSPTPVLVWIYGGGFYSGASSLDVYDGRFLVQAERTVLVSMNYRVGAFGFLALPGSREAPGNVGLLDQRLALQWVQENVAAFGGDPTSVTLFGESAGAASVGMHLLSPPSRGLFHRAVLQSGAPNGPWATVGMGEARRRATQLAHLVGCPPGGTGGNDTELVACLRTRPAQVLVNHEWHVLPQESVFRFSFVPVVDGDFLSDTPEALINAGDFHGLQVLVGVVKDEGSYFLVYGAPGFSKDNESLISRAEFLAGVRVGVPQVSDLAAEAVVLHYTDWLHPEDPARLREALSDVVGDHNVVCPVAQLAGRLAAQGARVYAYVFEHRASTLSWPLWMGVPHGYEIEFIFGIPLDPSRNYTAEEKIFAQRLMRYWANFARTGDPNEPRDPKAPQWPPYTAGAQQYVSLDLRPLEVRRGLRAQACAFWNRFLPKLLSATDTLDEAERQWKAEFHRWSSYMVHWKNQFDHYSKQDRCSDL	0.6* fold change	2.1* fold change				maximal rate of fibril formation (Aβ (1-40) peptide; Aβ in the presence of 0.36 μM AChE-S (Aβ alone 0.057)): 0.116 FU/min; lag period prior to fibril formation (Aβ (1-40) peptide; Aβ in the presence of 0.36 μM AChE-S (Aβ alone 240 minutes)): 150 min
ASP63: synthetic AChE-S C-terminal peptide, mimics residues 548-610 in hAChE (ASP63 Synthetic peptide, synthetic AChE-S C-terminal peptide, mimics residues 548-610 in hAChE) PLEVRRGLRAQACAFWNRFLPKLLSATDTLDEAERQWKAEFHRWSSYMVHWKNQFDHYSKQDR	1.5 fold change	0.7 fold change	no significant effect on amyloid formation			
hRBC AChE: human erythrocytes ACHE compared with serum BChE in Table 8 (protein) EGREDAELLVTVRGGRLRGIRLKTPGGPVSAFLGIPFAEPPMGPRRFLPPEPKQPWSGVVDATTFQSVCYQYVDTLYPGFEGTEMWNPNRELSEDCLYLNVWTPYPRPTSPTPVLVWIYGGGFYSGASSLDVYDGRFLVQAERTVLVSMNYRVGAFGFLALPGSREAPGNVGLLDQRLALQWVQENVAAFGGDPTSVTLFGESAGAASVGMHLLSPPSRGLFHRAVLQSGAPNGPWATVGMGEARRRATQLAHLVGCPPGGTGGNDTELVACLRTRPAQVLVNHEWHVLPQESVFRFSFVPVVDGDFLSDTPEALINAGDFHGLQVLVGVVKDEGSYFLVYGAPGFSKDNESLISRAEFLAGVRVGVPQVSDLAAEAVVLHYTDWLHPEDPARLREALSDVVGDHNVVCPVAQLAGRLAAQGARVYAYVFEHRASTLSWPLWMGVPHGYEIEFIFGIPLDPSRNYTAEEKIFAQRLMRYWANFARTGDPNEPRDPKAPQWPPYTAGAQQYVSLDLRPLEVRRGLRAQACAFWNRFLPKLLSATDTLDEAERQWKAEFHRWSSYMVHWKNQFDHYSKQDRCSDL				120	7.2	AThCh hydrolysis ratio difference of AChE:BChE ([2]; at 0.1 mM substrate): 245 fold; AThCh hydrolysis ratio difference of AChE:BChE ([2]; at 25 mM substrate): 36 fold
BChE: Purified human BChE from human serum (Sigma) (protein, listed as Homo sapiens) MHSKVTIICIRFLFWFLLLCMLIGKSHTEDDIIIATKNGKVRGMNLTVFGGTVTAFLGIPYAQPPLGRLRFKKPQSLTKWSDIWNATKYANSCCQNIDQSFPGFHGSEMWNPNTDLSEDCLYLNVWIPAPKPKNATVLIWIYGGGFQTGTSSLHVYDGKFLARVERVIVVSMNYRVGALGFLALPGNPEAPGNMGLFDQQLALQWVQKNIAAFGGNPKSVTLFGESAGAASVSLHLLSPGSHSLFTRAILQSGSFNAPWAVTSLYEARNRTLNLAKLTGCSRENETEIIKCLRNKDPQEILLNEAFVVPYGTPLSVNFGPTVDGDFLTDMPDILLELGQFKKTQILVGVNKDEGTAFLVYGAPGFSKDNNSIITRKEFQEGLKIFFPGVSEFGKESILFHYTDWVDDQRPENYREALGDVVGDYNFICPALEFTKKFSEWGNNAFFYYFEHRSSKLPWPEWMGVMHGYEIEFVFGLPLERRDNYTKAEEILSRSIVKRWANFAKYGNPNETQNNSTSWPVFKSTEQKYLTLNTESTRIMTKLRAQQCRFWTSFFPKVLEMTGNIDEAEWEWKAGFHRWNNYMMDWKNQFNDYTSKKESCVGL	1.4* fold change	0.3* fold change	prolonged the lag and reduced the apparent rate of amyloid formation	0.45	0.20	BChE capacity to hydrolyze ACh, fold lower than that of AChE ([2]; increased / high ACh concentrations (as in 25 mM)): 12 fold; BChE capacity of ACh hydrolysis in the circulation, fold lower than that of AChE ([2]; normal circumstances, low ACh): ca. 80 fold; time for which formation of amylin fibrils was completely attenuated (Amylin; 0.24 μM BChE): 100 min; lag time of amylin amyloid fibril formation (Amylin; 1 μM ThT, 0.24 μM BChE (without BChE 30 minutes)): 110 min; time for which fibril formation was totally prevented (Aβ (1-40) peptide; 0.4 μM BChE added to 33 μM Aβ): over 600 minutes; concentration needed for complete attenuation of Aβ fibrillation (Aβ (1-40) peptide; attenuation for 400 minutes of incubation, ThT fluorescence): 30000 ng/mL
